This is an account of results in publication PMC8354592.

This data set concerns the target GST-GNL1 (UniProt P36915 1-607). Put plainly: EMSA. For orientation: In EMSA bound probe runs differently from free probe, usually more slowly.

Sequence of GST-GNL1 (P36915 whole entry): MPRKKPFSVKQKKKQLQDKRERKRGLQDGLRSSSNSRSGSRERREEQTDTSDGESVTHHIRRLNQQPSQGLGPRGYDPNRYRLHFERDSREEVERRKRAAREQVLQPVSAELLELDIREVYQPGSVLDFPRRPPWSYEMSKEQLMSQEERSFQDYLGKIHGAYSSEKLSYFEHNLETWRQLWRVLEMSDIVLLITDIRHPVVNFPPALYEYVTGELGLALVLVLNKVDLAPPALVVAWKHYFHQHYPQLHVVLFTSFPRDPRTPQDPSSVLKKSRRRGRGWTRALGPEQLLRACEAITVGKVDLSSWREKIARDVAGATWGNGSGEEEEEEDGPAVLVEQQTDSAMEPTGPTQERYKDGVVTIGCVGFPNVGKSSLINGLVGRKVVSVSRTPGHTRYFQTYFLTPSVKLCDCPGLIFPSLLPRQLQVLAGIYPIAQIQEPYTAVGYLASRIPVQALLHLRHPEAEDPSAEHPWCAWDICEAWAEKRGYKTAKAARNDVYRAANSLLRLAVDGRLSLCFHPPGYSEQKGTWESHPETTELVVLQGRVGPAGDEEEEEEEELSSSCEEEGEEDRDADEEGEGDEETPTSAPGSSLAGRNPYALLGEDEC

B1: PRKN G/A mutant (ssRNA)
RNA: GGAUUCCUAGGGCCGAGCGCGAGAGCGAGAAGGCCUGAAGGAUUUAACCCAGAAGAGCCGCUGGUGAGAGGCGCGGCUGGCGCCGCUGCGCGC
As a reminder, the Kd is a measure of binding affinity in units of concentration. The low end stands for higher affinity, the high end for lower affinity. Molecule B1 gave a Kd of 7.34 µM.
